Assay [1] has as its target T1, human CEACAM1, recombinant soluble (hCEACAM-1, R&D Systems #2244-CM-050) (human, UniProt P13688 35-428).
T1 sequence (looked up): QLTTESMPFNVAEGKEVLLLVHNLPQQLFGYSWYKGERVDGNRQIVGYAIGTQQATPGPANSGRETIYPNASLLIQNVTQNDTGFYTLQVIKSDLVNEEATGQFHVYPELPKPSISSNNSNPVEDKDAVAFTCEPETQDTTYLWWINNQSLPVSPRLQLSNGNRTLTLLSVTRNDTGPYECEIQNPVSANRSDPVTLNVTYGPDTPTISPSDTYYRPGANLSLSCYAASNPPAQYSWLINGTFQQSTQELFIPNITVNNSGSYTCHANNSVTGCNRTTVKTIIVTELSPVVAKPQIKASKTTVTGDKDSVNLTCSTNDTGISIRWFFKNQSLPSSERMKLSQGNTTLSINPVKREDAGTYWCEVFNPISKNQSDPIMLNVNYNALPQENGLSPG
Briefly: ELISA, coated CEACAM family protein. The protocol: (§1) 96-well plates were coated with 0.5 μg/mL antigen, hCEACAM-1 (2244-CM-050, R&D Systems), hCEACAM-5 (4128-CM-050, R&D Systems), hCEACAM-6 (3934-CM-050, R&D Systems) or CEACAM-8 (9639-CM-050, R&D Systems) in PBS over night at 4° C. After washing in PBS/0.05% Tween 20 (PBST), the plates were blocked with PBST, 2% BSA for at least 30 minutes at room temperature before a second round of washing. RUBY bsAbs, diluted in PBST, 0.5% BSA, were then added and allowed to bind for at least 1 hour at room temperature. […] Finally, a final round of washing was performed and bound complexes detected using SuperSignal Pico Luminescent as substrate and luminescence signals were measured using Fluostar Optima.

Assay [2] concerns the target T2, human CEACAM6, recombinant soluble (hCEACAM-6, R&D Systems #3934-CM-050) (human, UniProt P40199 35-320).
T2 sequence (looked up): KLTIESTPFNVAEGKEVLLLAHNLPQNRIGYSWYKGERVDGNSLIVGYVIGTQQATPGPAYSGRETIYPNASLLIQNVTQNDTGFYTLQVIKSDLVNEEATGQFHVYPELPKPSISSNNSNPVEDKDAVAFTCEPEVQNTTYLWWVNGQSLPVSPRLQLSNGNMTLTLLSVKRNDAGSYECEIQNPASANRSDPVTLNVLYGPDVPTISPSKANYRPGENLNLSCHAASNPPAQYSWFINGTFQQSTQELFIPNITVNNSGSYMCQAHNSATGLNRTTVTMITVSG
The experiment in a line: ELISA, coated CEACAM family protein. The protocol: as §1

Assay [3] deals with T3, CEACAM8, recombinant soluble (CEACAM-8, R&D Systems #9639-CM-050) (UniProt P31997 35-320, limits assumed).
T3 sequence (looked up): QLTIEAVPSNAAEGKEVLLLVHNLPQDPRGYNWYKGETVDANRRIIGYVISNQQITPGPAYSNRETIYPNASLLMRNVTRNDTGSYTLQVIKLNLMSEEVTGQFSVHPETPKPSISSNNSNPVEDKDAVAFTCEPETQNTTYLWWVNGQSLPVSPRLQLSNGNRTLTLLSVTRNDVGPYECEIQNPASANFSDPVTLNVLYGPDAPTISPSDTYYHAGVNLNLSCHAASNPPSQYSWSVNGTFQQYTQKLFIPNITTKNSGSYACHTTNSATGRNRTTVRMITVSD
The experiment in a line: ELISA, coated CEACAM family protein. On the procedure: as §1

Assay [4] has as its target T4, biotinylated human CD40-mouse Fc (Ancell #504-030) (human, UniProt P25942 21-193, biotinylated).
T4 construct: Bought fusion protein; also called hCD40-muIg; CD40mFc-biotin; not shown: mouse Ig Fc of the bought fusion protein
The experiment in a line: dual target ELISA: CEACAM5 coated, biotinylated hCD40-muIg detection. The protocol:
ELISA plates were coated with human EpCAM, bsAb was added followed by detection using goat anti human-kappa light chain-HRP.
as §1

One molecule from patent US20240117074A1 (published 2024) can be followed below.

T4 sequence (P25942 21-193): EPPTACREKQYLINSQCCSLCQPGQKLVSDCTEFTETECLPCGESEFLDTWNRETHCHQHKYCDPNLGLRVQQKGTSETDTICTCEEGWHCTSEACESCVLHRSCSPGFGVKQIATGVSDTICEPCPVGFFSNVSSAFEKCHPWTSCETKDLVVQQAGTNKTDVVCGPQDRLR

B1: Multi48 (bispecific antibody)
heavy 1: not shown
light: DIQMTQSPSSLSASVGDRVTITCRASQSISSYLNWYQEKPGKAPKLLIYAASSLQSGVPSRFSGSGSGTDFTLTISSLQPEDFATYYCQQYGRNPPTFGQGTKLEIKRTVAAPSVFIFPPSDEQLKSGTASVVCYLNNFYPREAKVQWKVDNALQSGNSQESVTEQDSKDSTYSLWSTLTLSKADYEKHKVYACEVTHQGLSSPVTKSFNRGEC
heavy 2: EVQLLESGGGLVQPGGSLRLSCAASGFTFGDHAMSWVREAPGKGLEWVSAISGYGHSTGYADSVKGRFTISRDNSKNTLYLQMNSLRAEDTAVYYCARNHYRVGLDYWGQGTLVTVSSASTKGPSVFPLAPSSKSTSGGTAALGCLVKDYFPEPVTVSWNSGALTSGVHTFPAVLQSSGLYSLTSVVEVPSSSLGTQTYICNVNHKPSNTKVDKKVEPKSC
notes: copies: 2 + 2 + 2
B1: the binding result in assay [1] is reported as “no binding”; in assay [2] it was “no binding”; in assay [3] it was “no binding”; in assay [4] it was “binds”.
